Patent US11713337B2, “Peptide, compositions and method for delivery of agents into cells and tissues” (priority 2019, dated 2023)
Where “and” joins values, the source holds several entries; their conditions need not be identical. Equal entries are not always repeated. Entries after “also recorded” stand apart in the source; their conditions may differ. Peptide text beside a SMILES is read from it. * marks the point of attachment. 5FAM = O=C1OC2(c3ccc(O)cc3Oc3cc(O)ccc32)c2ccc(C(=O)*)cc21

Legend:
[1] = test system: retina; assay: Retinal penetration of FAM-labeled Nuc1 after intravitreal injection
Experimental: Intravitreal and subretinal injections: Mice were anesthetized by injecting intraperitoneally a cocktail mixture containing Ketamine (100 mg/kg, Phoenix™, St Joseph, Mo.) and Xylazine (10 mg/kg, Lloyed, Shenandoah, Iowa) followed by topical application of 0.5% proparacaine hydrochloride (Akorn Inc., Lake Forest, Ill., USA) for topical analgesia to the cornea. Mice were kept warm during anesthesia. lntravitreal and subretinal injections were performed using a 32-gauge needle and a 5μI glass syringe, as previously described (Cashman et al., 2015). […] Four hours post injection (as indicated), eyes were enucleated and fixed in 4% paraformaldehyde. […] Retinal cryosections were taken using a Micron 550 cryostat.
Four hours post injection, eyes of these mice were enucleated and fixed in 4% paraformaldehyde. Retinal cryosections were generated using a Micron 550 cryostat and sections were imaged using a fluorescent microscope.

[2] = test system: retina; conditions: 1 μg dexamethasone alone or with 1 μg Nuc1
Experimental: We hypothesized that Nuc1 may facilitate penetration of steroids into tissues, enabling a steroid to be applied in a reduced dosage without loss of efficacy. To test this hypothesis, we injected either 1 μg fluorescently labeled dexamethasone alone or fluorescently labeled dexamethasone in combination with 1 μg Nuc1.

[3] = test system: alkali burn of the cornea; assay: Alkali burn of the cornea: corneal opacity and H+E histology; format: in vivo, C57BL/6 mice
Excerpt: (§1) Mice were kept warm during anesthesia. Alkali burn was induced in the cornea by applying 2 mm filter paper discs soaked with 1N sodium hydroxide (NaOH) on the central cornea of the right eye for 30 seconds. The filter paper was gently removed from the cornea and the cornea rinsed with phosphate buffered saline (PBS) 10 times to clear residual NaOH. The left eye was left unexposed to NaOH and served as a control. […] The treatments were applied topically once a day for seven days. Images of the eye were captured on day 7 using a digital camera. After 7 days, mice were sacrificed by CO2 inhalation, followed by cervical dislocation. The eyes were enucleated and fixed in 4% paraformaldehyde. Corneal cryosections were taken using a Micron 550 cryostat.
Histopathology: The eyes were harvested for histology 7 days post-treatment and fixed in Hartman's fixative. After 48 hours, the specimens were dehydrated through alcohol steps and embedded in paraffin. […] sections were cut at different planes, including the optic nerve region, and stained with Hematoxylin & Eosin (H&E). Imaging of stained sections was performed using an Olympus BX51 microscope using a Retiga 2000r camera.
On day 7, mice were sacrificed for imaging of corneas (FIG. 14A). […] Mice were scored for clinical opacity based on method described by Anderson et al.. […]

[4] = test system: gliosis in the retina after alkali burn; assay: Alkali burn of the cornea: GFAP staining of retina (gliosis); format: in vivo, C57BL/6 mice; conditions: topical to cornea for 7 days after alkali burn
Excerpt: as §1
Immunochemistry: Cryosections were air dried for 10 minutes and washed in PBS for 5 minutes. They were subsequently incubated in 6% normal goat serum and PBS-Triton for 1 hour at room temperature for permeabilization and blocking. The slides were incubated with FITC-conjugated isolectin or with primary antibody against one of following: α-smooth muscle actin (SMA), glial fibrillary acidic protein (GFAP), CD45, transforming growth factor beta (TGF-β1), F4/80, transforming growth factor beta (TGF-β1) (Abcam; ab92486), or activated Caspase-3. […] The intensity of the antibody specific staining was quantified using ImageJ software. […]

[5] = test system: alkali burn of the cornea; assay: Alkali burn of the cornea: TUNEL assay on corneal cryosections; format: in vivo, C57BL/6 mice; conditions: 7 days topical treatment
Excerpt: as §1
TUNEL assay: To detect cell death, the terminal deoxynucleotidyl transferase-mediated dUTP-biotin nick-end labeling (TUNEL) method was performed on corneal cryosections using the In Situ Death Detection Kit, TMR Red (Sigma), as per the manufacturer's instructions. The sections were imaged, as described above, and images used for quantification of TUNEL positive cells using ImageJ (FIJI version and plug in), as previously described.

[6] = test system: alkali burn of the cornea; assay: Alkali burn of the cornea: multiplex ELISA of cytokines in corneal lysates; format: in vivo, C57BL/6 mice; conditions: 7 days topical treatment, Bioplex
Excerpt: as §1
Multiplex ELISA: Multiplex ELISA was performed to detect IL-6, IL-17, IL-10, IFN-G, TNF-α, and IL-1β using Bio-plex pro mouse cytokineTh17 A 6 plex group I (Bio-Rad, M6000007NY), as per the manufacturer's instructions. Briefly, alkali burn was induced as described above. Mice were sacrificed on day 7 and corneas were extracted. The corneas were dissected into small pieces and stored at −80° C. in Bioplex cell lysis buffer. Two corneas were pooled together for each sample and 50 μl of the lysate was used in duplicate for each sample. The samples were run using the Bio plex manager MP software and the data was analyzed using Bioplex manager 6.0.

[7] = test system: alkali burn of the cornea; assay: Alkali burn of the cornea: staining of corneal cryosections (isolectin, SMA, CD45, F4/80, TGF-β1, activated Caspase-3); format: in vivo, C57BL/6 mice
Excerpt: The filter paper was gently removed and the cornea was rinsed with phosphate buffered saline (PBS) 10 times. […] The treatments were applied topically once a day for seven days. After 7 days, mice were sacrificed by CO2 inhalation. Eyes were enucleated and fixed in 4% paraformaldehyde. Corneal cryosections were taken using a Micron 550 cryostat and stained for α-actin, a marker of fibrosis.
as §1
Immunochemistry: Cryosections were air dried for 10 minutes and washed in PBS for 5 minutes. They were subsequently incubated in 6% normal goat serum and PBS-Triton for 1 hour at room temperature for permeabilization and blocking. The slides were incubated with FITC-conjugated isolectin or with primary antibody against one of following: α-smooth muscle actin (SMA), glial fibrillary acidic protein (GFAP), CD45, transforming growth factor beta (TGF-β1), F4/80, transforming growth factor beta (TGF-β1) (Abcam; ab92486), or activated Caspase-3. This incubation was performed at 4° C. in a moist chamber overnight. For samples treated with antibodies, detection was performed by incubation with a secondary Cy3-conjugated goat anti-rabbit/anti-mouse antibody (Jackson lmmunoResearch, West Grove, Pa.) for 1 hour at room temperature. The slides were washed three times with PBS and mounted in Vectashield anti fade mounting medium containing DAPI to counterstain the nuclei. Imaging of stained sections was performed using an Olympus IX51 microscope and appropriate filters. Images were captured using a Retiga 2000r camera. The intensity of the antibody specific staining was quantified using ImageJ software.

[8] = test system: floxed stop tdTomato reporter in retina; assay: Cre recombinase uptake and gene editing in Ai9 reporter mice (tdTomato); format: in vivo; conditions: 4 micrograms Cre recombinase alone or with 1 microgram Nuc1, intravitreal
Excerpt: In these mice, a reporter tdTomato transgene expression cassette is turned on when a foxed stop codon is excised by Cre recombinase. […] The observation that Cre recombinase can enter cells by itself was surprising. However, the above assay is highly sensitive due to the fact that one gene editing event is substantially amplified through the continuous production of protein that accumulates in the cell.

Molecule: O=C(O)c1ccc2c(c1)C1(OC2=O)c2ccc(O)cc2Oc2cc(O)ccc21 [6-FAM, reference compound]
- localization in retina (fluorescence microscopy of cryosections) ([1]; 1 ug in 1 ul H2O intravitreal, four hours post injection, adult mice): unable to penetrate retina

Molecule: CC[C@H](C)[C@H](NC(=O)[C@H](CO)NC(=O)[C@H](C)NC(=O)c1ccc2c(c1)C(=O)OC21c2ccc(O)cc2Oc2cc(O)ccc21)C(=O)N[C@@H](CCCCN)C(=O)N[C@H](C(=O)N[C@@H](C)C(=O)N[C@H](C(=O)N[C@@H](CO)C(=O)N[C@@H](C)C(=O)NCC(=O)NCC(=O)N[C@@H](CC(=O)O)C(=O)N[C@@H](CCCCN)C(=O)N1CCC[C@H]1C(=O)N[C@@H](CCCNC(=N)N)C(=O)N[C@@H](CCCNC(=N)N)C(=O)O)C(C)C)C(C)C [FAM labeled Nuc1] (5FAM-ASIKVAVSAGGDKPRR-OH)
- localization in retina (fluorescence microscopy of cryosections) ([1]; mouse, in vivo): localized to all layers of the retina

Molecule: C[C@@H]1C[C@H]2[C@@H]3CCC4=CC(=O)C=C[C@]4(C)[C@@]3(F)[C@@H](O)C[C@]2(C)[C@@]1(O)C(=O)CO [dexamethasone]
- uptake of fluorescently labeled dexamethasone into the retina [2]: taken up into the retina

B1: decorin: human recombinant decorin, a small leucine rich proteoglycan (protein, UniProt P07585 31-359, looked up)
Decorin: DEASGIGPEVPDDRDFEPSLGPVCPFRCQCHLRVVQCSDLGLDKVPKDLPPDTTLLDLQNNKITEIKDGDFKNLKNLHALILVNNKISKVSPGAFTPLVKLERLYLSKNQLKELPEKMPKTLQELRAHENEITKVRKVTFNGLNQMIVIELGTNPLKSSGIENGAFQGMKKLSYIRIADTNITSIPQGLPPSLTELHLDGNKISRVDAASLKGLNNLAKLGLSFNSISAVDNGSLANTPHLRELHLDNNKLTRVPGGLAEHKYIQVVYLHNNNISVVGSSDFCPPGHNTKKASYSGVSLFSNPVQYWEIQPSTFRCVYVRSAIQLGNYK
- corneal histology (H+E transverse sections) ([3]; 7 days topical treatment, relative to PBS): increase in thickness of the epithelium; also recorded: vacuolization was apparent
- clinical opacity score (method of Anderson et al.) ([3]; topical once daily for 7 days from 24 hours post alkali burn, PBS scored 4): 2.8
- GFAP staining of retina (Muller cell activation, gliosis) [4]: reduced staining relative to the retinas of mice treated with PBS
- TUNEL staining of cornea, images (cell death) [5]: considerable reduction in TUNEL staining in the corneal stroma
- reduction in TUNEL staining relative to PBS (quantification) [5]: 44.8%
- IFN-G expression in corneal lysate relative to PBS treated mice [6]: reduction in expression
- IL-1β expression in corneal lysate [6]: increased expression
- IL-6 expression in corneal lysate relative to PBS treated mice [6]: reduction in expression
- IL-17 expression in corneal lysate relative to PBS treated mice [6]: reduction in expression
- TNF-α expression in corneal lysate relative to PBS treated mice [6]: reduction in expression
- CD45 staining of cornea, images (leukocytes) ([7]; 7 days topical treatment): reduction in CD45 and F4/80 staining in the anterior region of the stroma
- F4/80 staining of cornea, images (macrophages) ([7]; 7 days topical treatment): reduction in CD45 and F4/80 staining in the anterior region of the stroma
- SMA staining of cornea, images (fibrosis) ([7]; 7 days topical treatment): modest reduction of SMA staining
- TGF-β1 expression in cornea (antibody staining) ([7]; 7 days topical treatment): lower expression of TGF-β1
- activated Caspase-3 staining of cornea, images, relative to PBS treated mice ([7]; 7 days topical treatment): considerable reduction in the staining for activated Caspase-3 in the stroma and endothelium
- isolectin (GSL I) staining of cornea, images (neovascularization) ([7]; 7 days topical treatment): obvious reduction in isolectin staining
- reduction in CD45 staining / CD45-positive cells relative to corneas treated with PBS ([7]; 7 days topical treatment): 39.6%
- reduction in F4/80 staining relative to corneas treated with PBS ([7]; 7 days topical treatment): no significant reduction
- reduction in isolectin staining relative to PBS treated corneas (quantification) ([7]; 7 days topical treatment): not significantly different to that of PBS treated corneas
- reduction in activated Caspase-3 staining (quantification of fluorescent signal) ([7]; 7 days topical treatment, reference PBS treated (implied)): 51.5%
- reduction in α-actin (SMA) staining relative to PBS (fibrosis) ([7]; topical 0.5 μg decorin with or without 0.5 μg Nuc1 once a day for seven days, from 24 hours after NaOH): 33.3% and 33.25%

B2: Cre recombinase: Cre recombinase protein, approximately 38 Kd (protein, UniProt P06956 1-343, looked up)
Recombinase cre: MSNLLTVHQNLPALPVDATSDEVRKNLMDMFRDRQAFSEHTWKMLLSVCRSWAAWCKLNNRKWFPAEPEDVRDYLLYLQARGLAVKTIQQHLGQLNMLHRRSGLPRPSDSNAVSLVMRRIRKENVDAGERAKQALAFERTDFDQVRSLMENSDRCQDIRNLAFLGIAYNTLLRIAEIARIRVKDISRTDGGRMLIHIGRTKTLVSTAGVEKALSLGVTKLVERWISVSGVADDPNNYLFCRVRKNGVAAPSATSQLSTRALEGIFEATHRLIYGAKDDSGQRYLAWSGHSARVGAARDMARAGVSIPEIMQAGGWTNVNIVMNYIRNLDSETGAMVRLLEDGD
- tdTomato positive Muller cells [8]: almost no Muller cells expressing tdTomato
- tdTomato reporter expression in retina [8]: detectable tdTomato expression
